From patent US10562936B2, “Ligands for integrin αvβ6, synthesis and uses thereof” (Technische Universitat Munchen, priority 2015, dated 2020) come the findings set out here.

Read-outs that look alike come from different tables or passages of the source. Square brackets hold non-standard residues; d marks the D form. Side chains are listed from the residue outwards. Peptide text beside a SMILES is read from it. NMeK = CN[C@@H](CCCCN)C(=O)O; dNMeK = CN[C@H](CCCCN)C(=O)O; Cy5.5 = Cyanine-5.5; Ahx = NCCCCCC(=O)O; βAla = NCCC(=O)O; Sar = CNCC(=O)O A value given as a limit tells only on which side of the number the result lay.

One test concerns the target T1, αvβ3 (Homo sapiens, UniProt P05106+P06756).
T1 construct: using coated extracellular matrix proteins and soluble integrins
In words: Solid-phase integrin binding assay, αvβ3 (coated Vitronectin). Here is the method: (§1) The activity and selectivity of integrin ligands were determined by a solid-phase binding assay according to the previously reported protocols using coated extracellular matrix proteins and soluble integrins: Fibronectin (Fn) for α5β1, latent activating protein (LAP) for αvβ6 and αvβ8, Vitronectin (Vn) for αvβ3 and αvβ5, Fibrinogen (Fbg) for aIIbβ3.

The target in another test is T2, αIIbβ3 (Homo sapiens, UniProt P05106+P08514).
T2 construct: using coated extracellular matrix proteins and soluble integrins
T2 sequence (P08514 32-1039): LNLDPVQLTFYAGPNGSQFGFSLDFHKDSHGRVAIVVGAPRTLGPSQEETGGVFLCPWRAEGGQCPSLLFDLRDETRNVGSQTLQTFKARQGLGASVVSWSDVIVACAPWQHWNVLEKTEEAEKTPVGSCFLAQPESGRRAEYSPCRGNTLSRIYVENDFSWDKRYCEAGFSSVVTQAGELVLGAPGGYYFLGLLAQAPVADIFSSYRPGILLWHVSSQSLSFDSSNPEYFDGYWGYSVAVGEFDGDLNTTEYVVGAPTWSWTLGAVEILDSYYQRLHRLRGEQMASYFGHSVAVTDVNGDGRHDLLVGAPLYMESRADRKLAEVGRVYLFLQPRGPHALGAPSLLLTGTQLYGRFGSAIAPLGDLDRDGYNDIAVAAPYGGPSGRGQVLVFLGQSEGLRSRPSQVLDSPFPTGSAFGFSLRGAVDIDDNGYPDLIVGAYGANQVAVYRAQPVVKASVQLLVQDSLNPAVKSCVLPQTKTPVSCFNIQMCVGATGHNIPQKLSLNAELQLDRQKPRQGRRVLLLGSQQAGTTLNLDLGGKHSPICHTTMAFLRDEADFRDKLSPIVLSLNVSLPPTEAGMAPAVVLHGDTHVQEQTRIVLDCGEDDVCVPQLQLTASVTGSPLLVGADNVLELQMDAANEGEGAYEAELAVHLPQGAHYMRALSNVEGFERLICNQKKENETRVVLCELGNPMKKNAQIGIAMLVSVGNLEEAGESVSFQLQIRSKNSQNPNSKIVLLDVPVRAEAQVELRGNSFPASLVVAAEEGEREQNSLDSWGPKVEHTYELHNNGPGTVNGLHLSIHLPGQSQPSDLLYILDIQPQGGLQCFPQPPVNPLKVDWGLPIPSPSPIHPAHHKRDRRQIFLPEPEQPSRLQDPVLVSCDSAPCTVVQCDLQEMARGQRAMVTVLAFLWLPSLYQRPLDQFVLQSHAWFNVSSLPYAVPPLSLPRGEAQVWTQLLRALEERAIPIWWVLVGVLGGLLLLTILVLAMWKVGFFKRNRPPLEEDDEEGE
T2 sequence (P05106 27-788): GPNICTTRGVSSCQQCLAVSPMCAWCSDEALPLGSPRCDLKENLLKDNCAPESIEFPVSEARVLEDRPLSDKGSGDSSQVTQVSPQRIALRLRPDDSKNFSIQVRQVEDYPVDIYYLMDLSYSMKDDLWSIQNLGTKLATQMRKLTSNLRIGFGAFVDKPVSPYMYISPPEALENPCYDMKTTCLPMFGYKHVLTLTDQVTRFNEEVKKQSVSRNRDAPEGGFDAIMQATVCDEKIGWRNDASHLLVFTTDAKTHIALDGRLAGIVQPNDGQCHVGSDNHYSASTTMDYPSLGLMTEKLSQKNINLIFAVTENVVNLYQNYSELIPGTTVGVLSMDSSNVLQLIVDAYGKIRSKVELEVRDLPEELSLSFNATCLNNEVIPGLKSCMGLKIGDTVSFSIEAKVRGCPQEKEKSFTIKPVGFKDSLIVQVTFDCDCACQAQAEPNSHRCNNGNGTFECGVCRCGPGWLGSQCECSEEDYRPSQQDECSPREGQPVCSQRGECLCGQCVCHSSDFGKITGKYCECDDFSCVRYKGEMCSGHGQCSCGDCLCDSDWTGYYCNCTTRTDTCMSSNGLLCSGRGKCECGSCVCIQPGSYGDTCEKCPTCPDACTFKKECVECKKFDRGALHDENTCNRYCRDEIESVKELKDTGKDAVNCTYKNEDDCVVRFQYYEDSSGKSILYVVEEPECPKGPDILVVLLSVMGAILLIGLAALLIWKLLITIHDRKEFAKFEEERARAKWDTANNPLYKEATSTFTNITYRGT
Kind of test: Solid-phase integrin binding assay, αIIbβ3 (coated Fibrinogen). Here is the method: as §1

Another test has as its target T3, αvβ5 (Homo sapiens, UniProt P06756+P18084).
T3 construct: using coated extracellular matrix proteins and soluble integrins
Kind of test: Solid-phase integrin binding assay, αvβ5 (coated Vitronectin). Here is the method:
as §1

The next test addresses αvβ6 (Homo sapiens, UniProt P06756+P18564). In words: Solid-phase integrin binding assay, αvβ6 (coated LAP, soluble integrin). More on the design: using coated extracellular matrix proteins and soluble integrins. Here is the method:
as §1

For test [1], the system named is human oral squamous cell carcinoma (OSCC) cell line HN (high integrin αvβ6). In words: Cell binding / fluorescence bioimaging of Cy5.5 conjugate on HN cells. Format: cell-based. An excerpt:
The human oral squamous cell carcinoma (OSCC) cell line HN were purchased from the German Collection of Microorganisms and Cell Cultures, Braunschweig, Germany (DSMZ no. ACC 417). HN cells derived from a cervical lymph node metastasis of a highly aggressive and invasive OSCC of the soft palate.^[9] As control cells, we used the human ovarian cancer cell line OVMZ6 with low integrin αvβ6 and high integrin αvβ3 expression.^[10] All cells were cultivated in Dulbecco's Modified Eagle's Medium (DMEM) (Sigma-Aldrich, St. Louis, Mo., USA), supplemented with 10% (v/v) fetal calf serum (FCS) (Gibco, LifeTechnologies™, Carlsbad, Calif., USA).
HN and OVMZ6 cells were cultivated for 24 h on fibronectin-coated microchamber slides at a density of 25×10^3/well, thereafter fixed in 2% (w/v) PFA for 15 min at r.t. and washed in PBS. The Cy5.5-conjugated compound 18-Cy5.5, dissolved in PBS, 5% (v/v) dimethyl sulfoxide (DMSO), was applied at a final concentration of […] for 1 h at r.t., followed by 3 washes in PBS. […] As control peptide served the non-binding cycl(R^betaADfK) labelled via lysine side-chain NH2 group with Cy5.5 fluorescent dye. After the incubation period, cells were washed 6 times in PBS and slides mounted. Fluorescence signal intensity was detected by the microscope Zeiss LSM 700 (Zeiss) as described above.

Test [2] concerns the target integrin α5β1 (soluble integrin) (UniProt P08648). Kind of test: solid-phase binding assay, internal standard; coated fibronectin, soluble α5β1.
Test [3] addresses T4, integrin αvβ6 (soluble integrin) (UniProt P06756 31-992; P18564 22-707).
T4 construct: Only 'soluble integrins' is said
Kind of test: solid-phase binding assay, competition; coated LAP, soluble αvβ6.

Test [4] addresses T5, integrin αvβ3 (soluble integrin) (UniProt P06756 31-992; P05106 27-718).
T5 construct: Only 'soluble integrins' is said
In words: solid-phase binding assay, competition; coated vitronectin, soluble αvβ3.

For test [5], the target named is T6, integrin αvβ8 (soluble integrin) (UniProt P06756 31-992; P26012 43-684).
T6 construct: Only 'soluble integrins' is said
In words: solid-phase binding assay, competition; coated LAP, soluble αvβ8.

For test [6], the target named is T7, integrin α5β1 (soluble integrin) (UniProt P08648 42-995; P05556 21-728).
T7 construct: Only 'soluble integrins' is said
T7 sequence (P08648 42-995, chain 1 of 2): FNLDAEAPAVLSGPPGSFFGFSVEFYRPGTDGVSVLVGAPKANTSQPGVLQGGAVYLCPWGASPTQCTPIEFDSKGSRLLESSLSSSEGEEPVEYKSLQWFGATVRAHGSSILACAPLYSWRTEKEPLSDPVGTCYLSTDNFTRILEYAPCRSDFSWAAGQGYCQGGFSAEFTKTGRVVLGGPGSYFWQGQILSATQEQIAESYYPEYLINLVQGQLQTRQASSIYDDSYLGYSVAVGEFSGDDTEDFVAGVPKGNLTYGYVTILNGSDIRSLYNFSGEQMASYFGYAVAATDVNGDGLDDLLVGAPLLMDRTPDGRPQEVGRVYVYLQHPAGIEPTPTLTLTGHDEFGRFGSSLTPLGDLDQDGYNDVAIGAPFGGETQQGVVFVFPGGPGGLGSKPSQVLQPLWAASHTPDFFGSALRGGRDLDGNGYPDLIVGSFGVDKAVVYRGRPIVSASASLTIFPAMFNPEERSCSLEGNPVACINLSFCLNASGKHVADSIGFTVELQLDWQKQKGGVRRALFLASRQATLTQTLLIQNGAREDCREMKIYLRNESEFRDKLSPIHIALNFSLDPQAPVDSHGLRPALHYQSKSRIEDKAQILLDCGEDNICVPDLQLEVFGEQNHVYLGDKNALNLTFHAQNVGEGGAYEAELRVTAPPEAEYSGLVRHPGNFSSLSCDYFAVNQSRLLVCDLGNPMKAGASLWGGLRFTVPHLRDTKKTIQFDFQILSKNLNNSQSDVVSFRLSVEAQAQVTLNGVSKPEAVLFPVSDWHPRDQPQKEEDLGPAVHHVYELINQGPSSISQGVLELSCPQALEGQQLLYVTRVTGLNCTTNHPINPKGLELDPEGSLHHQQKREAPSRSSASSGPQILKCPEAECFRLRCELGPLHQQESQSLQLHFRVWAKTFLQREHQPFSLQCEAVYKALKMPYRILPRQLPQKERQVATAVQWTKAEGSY
T7 sequence (P05556 21-728, chain 2 of 2): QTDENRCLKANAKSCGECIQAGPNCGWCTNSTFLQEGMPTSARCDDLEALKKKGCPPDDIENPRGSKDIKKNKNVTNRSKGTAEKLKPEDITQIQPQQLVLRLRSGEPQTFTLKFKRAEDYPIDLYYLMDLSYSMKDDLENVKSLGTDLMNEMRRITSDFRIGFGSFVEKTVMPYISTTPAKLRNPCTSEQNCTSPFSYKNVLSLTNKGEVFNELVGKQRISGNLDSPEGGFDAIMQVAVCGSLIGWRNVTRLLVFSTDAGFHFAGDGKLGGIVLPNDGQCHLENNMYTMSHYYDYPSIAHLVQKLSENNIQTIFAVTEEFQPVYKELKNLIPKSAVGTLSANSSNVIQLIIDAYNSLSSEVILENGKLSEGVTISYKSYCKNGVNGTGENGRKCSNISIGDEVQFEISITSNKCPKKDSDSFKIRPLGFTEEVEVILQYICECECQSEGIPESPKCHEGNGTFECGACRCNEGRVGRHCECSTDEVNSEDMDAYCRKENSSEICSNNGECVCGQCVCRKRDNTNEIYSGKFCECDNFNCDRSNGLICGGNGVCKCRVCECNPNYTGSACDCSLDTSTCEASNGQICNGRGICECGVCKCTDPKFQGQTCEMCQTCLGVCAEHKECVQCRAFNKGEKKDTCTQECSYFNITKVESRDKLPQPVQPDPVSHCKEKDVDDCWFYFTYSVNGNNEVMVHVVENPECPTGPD
In words: solid-phase binding assay, competition; coated fibronectin, soluble α5β1.

Test [7] deals with T5, integrin αvβ3 (soluble integrin). Kind of test: solid-phase binding assay, competition; coated vitronectin, soluble αvβ3. The source holds these as a separate data set.
The mark [8] stands for this setting: solid-phase binding assay, Vitronectin coated, read-out: αvβ3, IC50.
The mark [9] stands for this setting: solid-phase binding assay, Fibrinogen coated, read-out: αIIbβ3, IC50.
The mark [10] stands for this setting: solid-phase binding assay, Vitronectin coated, read-out: αvβ5, IC50.

T4 sequence (P06756 31-992, chain 1 of 2): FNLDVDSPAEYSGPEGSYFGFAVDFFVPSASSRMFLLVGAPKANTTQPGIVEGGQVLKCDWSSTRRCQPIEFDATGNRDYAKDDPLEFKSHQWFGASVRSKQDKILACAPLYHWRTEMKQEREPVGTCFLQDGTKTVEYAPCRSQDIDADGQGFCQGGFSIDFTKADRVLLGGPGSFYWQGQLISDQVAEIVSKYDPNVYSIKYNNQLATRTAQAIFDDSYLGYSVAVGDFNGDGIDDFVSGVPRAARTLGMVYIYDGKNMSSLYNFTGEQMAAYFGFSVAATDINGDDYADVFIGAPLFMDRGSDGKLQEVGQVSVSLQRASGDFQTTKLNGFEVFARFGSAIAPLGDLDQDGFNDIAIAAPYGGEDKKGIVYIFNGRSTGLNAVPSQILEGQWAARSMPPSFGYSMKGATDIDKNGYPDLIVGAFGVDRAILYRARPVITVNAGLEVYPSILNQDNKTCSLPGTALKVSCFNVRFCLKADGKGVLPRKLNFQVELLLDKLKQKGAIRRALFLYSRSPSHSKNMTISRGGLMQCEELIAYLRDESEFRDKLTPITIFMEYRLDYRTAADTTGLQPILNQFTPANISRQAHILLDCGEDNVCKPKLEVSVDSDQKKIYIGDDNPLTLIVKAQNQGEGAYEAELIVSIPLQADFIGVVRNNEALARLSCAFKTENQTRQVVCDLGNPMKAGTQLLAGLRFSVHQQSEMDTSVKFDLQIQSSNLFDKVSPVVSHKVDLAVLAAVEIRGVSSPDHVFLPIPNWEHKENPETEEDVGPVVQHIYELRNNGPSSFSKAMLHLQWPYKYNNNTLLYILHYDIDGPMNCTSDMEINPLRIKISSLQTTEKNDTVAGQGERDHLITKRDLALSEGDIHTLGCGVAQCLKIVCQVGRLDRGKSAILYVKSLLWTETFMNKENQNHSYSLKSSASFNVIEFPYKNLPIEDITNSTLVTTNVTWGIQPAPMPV
T4 sequence (P18564 22-707, chain 2 of 2): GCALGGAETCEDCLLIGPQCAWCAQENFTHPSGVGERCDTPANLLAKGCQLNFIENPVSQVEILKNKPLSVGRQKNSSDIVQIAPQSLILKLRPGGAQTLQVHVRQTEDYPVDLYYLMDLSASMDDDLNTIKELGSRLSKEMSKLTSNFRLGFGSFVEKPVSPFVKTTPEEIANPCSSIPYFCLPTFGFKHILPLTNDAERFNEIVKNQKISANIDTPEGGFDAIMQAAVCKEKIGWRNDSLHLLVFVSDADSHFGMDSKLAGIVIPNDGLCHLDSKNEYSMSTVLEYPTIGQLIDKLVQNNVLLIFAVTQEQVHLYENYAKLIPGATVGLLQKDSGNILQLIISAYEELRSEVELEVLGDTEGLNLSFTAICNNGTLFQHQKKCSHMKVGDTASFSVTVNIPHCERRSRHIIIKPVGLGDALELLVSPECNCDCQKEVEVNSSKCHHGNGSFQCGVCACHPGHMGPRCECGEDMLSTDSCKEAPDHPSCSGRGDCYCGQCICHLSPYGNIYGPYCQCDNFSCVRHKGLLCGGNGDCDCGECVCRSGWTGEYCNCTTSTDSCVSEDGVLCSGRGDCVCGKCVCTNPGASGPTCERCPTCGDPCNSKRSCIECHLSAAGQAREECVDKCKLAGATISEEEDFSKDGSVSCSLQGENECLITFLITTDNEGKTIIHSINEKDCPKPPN

What is called IC50 is the concentration at which inhibition is half-maximal. On to `CC(=O)NCCCC[C@H]1C(=O)N[C@@H](Cc2ccccc2)C(=O)N[C@@H](CCCNC(=N)N)C(=O)NCC(=O)N[C@@H](CC(=O)O)C(=O)N[C@@H](CC(C)C)C(=O)N[C@@H](C)C(=O)N[C@@H](Cc2ccccc2)C(=O)N2CCC[C@@H]2C(=O)N1C` [Compound 23, F R G D L A F p (NMe)K^[f]], for which the IC50 at αvβ3 (setting [8]) is 640 nM; on αIIbβ3 (setting [9]), above 1000 nM; on αvβ5 (setting [10]) it was above 1000 nM; on αvβ6 it was 0.3 nM.
Take `CC(C)C[C@@H]1NC(=O)[C@H](CC(=O)O)NC(=O)CNC(=O)[C@H](CCCNC(=N)N)NC(=O)[C@H](C)NC(=O)[C@@H]2CCCN2C(=O)[C@H]2CCCN2C(=O)[C@H](CC(C)C)NC(=O)[C@H](C)NC(=O)[C@H](C)NC1=O` [Compound 1, A R G D L A A L p P] (cyclo(RGDLAAL[dP]PA)): the IC50 on αvβ3 was 76.7 nM; at αIIbβ3, above 1000 nM; on αvβ5, above 1000 nM; at αvβ6 it was 8.3 nM.
As for `CC(C)C[C@@H]1NC(=O)[C@H](CC(=O)O)NC(=O)CNC(=O)[C@H](CCCNC(=N)N)NC(=O)[C@H](Cc2ccccc2)NC(=O)[C@@H]2CCCN2C(=O)[C@H]2CCCN2C(=O)[C@H](CC(C)C)NC(=O)[C@H](C)NC1=O` [Compound 12, F R G D L A L p P] (cyclo(FRGDLAL[dP]P)), the 50% inhibitory concentration (IC50) is above 1000 nM at αvβ3 (setting [8]), above 1000 nM at αIIbβ3 (setting [9]), above 1000 nM at αvβ5 (setting [10]) and 1.25 nM on αvβ6.
Turning to `CC(C)C[C@@H]1NC(=O)[C@H](CC(=O)O)NC(=O)CNC(=O)[C@H](CCCNC(=N)N)NC(=O)[C@H](C)NC(=O)[C@@H]2CCCN2C(=O)[C@H]2CCCN2C(=O)[C@H](Cc2ccccc2)NC(=O)[C@H](C)NC1=O` [Compound 10, A R G D L A F p P] (cyclo(ARGDLAF[dP]P)), the results for the 50% inhibitory concentration (IC50) at αvβ3 (setting [8]) and on αvβ6 were 104 nM and 0.67 nM, respectively.
With “cycl(R^betaADfK)-ahx-Cy5.5 (cyclo(R[βAla]D[dF]K([Ahx-Cy5.5]))) [reference compound]”, in test [1] (fixed HN cells, conjugate 10 M, 1 h at r.t.), the “fluorescence signal intensity on cells” value was “did not result in fluorescence signal intensity”.
`CC(C)C[C@@H]1NC(=O)[C@H](CC(=O)O)NC(=O)CNC(=O)[C@H](CCCNC(=N)N)NC(=O)[C@H](C)NC(=O)[C@@H]2CCCN2C(=O)[C@H]2CCCN2C(=O)[C@H](CCCCN)NC(=O)[C@H](C)NC1=O` [Compound 11, A R G D L A K p P] (cyclo(ARGDLAK[dP]P)): the IC50 on αvβ3 (setting [8]) is 302 nM; on αIIbβ3 (setting [9]), above 1000 nM; at αvβ5 (setting [10]), above 1000 nM; at αvβ6, 1.51 nM.
Consider `CC(C)C[C@@H]1NC(=O)[C@H](CC(=O)O)NC(=O)CNC(=O)[C@H](CCCNC(=N)N)NC(=O)[C@H](C)NC(=O)[C@@H]2CCCN2C(=O)[C@H]2CCCN2C(=O)[C@H](CC(C)C)NC(=O)[C@@H](CC(=O)O)NC1=O` [Compound 7, A R G D L d L p P] (cyclo(ARGDL[dD]L[dP]P)), for which, on αvβ3 (setting [8]), the IC50 was above 1000 nM.
With `CC(C)C[C@@H]1NC(=O)[C@H](CC(=O)O)NC(=O)CNC(=O)[C@H](CCCNC(=N)N)NC(=O)[C@H](C)NC(=O)[C@@H]2CCCN2C(=O)[C@H]2CCCN2C(=O)[C@H](CC(C)C)NC(=O)[C@H](C)NC1=O` [Compound 4, A R G D L A L p P] (cyclo(ARGDLAL[dP]P)), the IC50 on αvβ3 (setting [8]) is 106 nM; on αIIbβ3 (setting [9]), above 1000 nM; on αvβ5 (setting [10]) it was above 1000 nM; at αvβ6, 3 nM.
As for `CC(C)C[C@@H]1NC(=O)[C@H](CC(=O)O)NC(=O)CNC(=O)[C@H](CCCNC(=N)N)NC(=O)[C@H](Cc2ccccc2)NC(=O)[C@H](CCCCN)N(C)C(=O)[C@H]2CCCN2C(=O)[C@H](Cc2ccccc2)NC(=O)[C@H](C)NC1=O` [Compound 18, F R G D L A F p (NMe)K], in test [1] (10-fold molar excess of unlabeled analogue for 1 h at r.t. prior to 18-Cy5.5), the “binding competition: fluorescence signal intensity of 18-Cy5.5 after pre-incubation” value is given as “strong reduction in fluorescence signal intensity”.
Cilengitide, c(-RGDf(NMe)V-) (peptide): the IC50 in test [2] was in the range of 1 to 8 nM.
On to cyclo(ARGDLAL[dNMeK]P) (Comparative compound (*)) [Compound 16, cyclic peptide A R G D L A L (NMe)k P], for which the concentration for half-maximal inhibition (IC50) amounted to 11.4 nM in test [3] and 50.4 nM in [4].
On the same counts, the results for FRGDLAYXX (head-to-tail cyclic; D-Pro (p) at position 8; N-methyl-Lys at position 9) [Compound 19, cyclic peptide F R G D L A Y p (NMe)K] are 0.39 nM and 685 nM.
On the same counts, the results for YRGDLAFXX (head-to-tail cyclic; D-Pro (p) at position 8; N-methyl-Lys at position 9) [Compound 21, cyclic peptide Y R G D L A F p (NMe)K] are 0.4 nM and 432 nM.

B1: Compound 20, cyclic peptide F R G D L A W p (NMe)K (peptide)
peptide: cyclo(FRGDLAW[dP][NMeK])
SMILES: CC(C)C[C@@H]1NC(=O)[C@H](CC(=O)O)NC(=O)CNC(=O)[C@H](CCCNC(=N)N)NC(=O)[C@H](Cc2ccccc2)NC(=O)[C@H](CCCCN)N(C)C(=O)[C@H]2CCCN2C(=O)[C@H](Cc2c[nH]c3ccccc23)NC(=O)[C@H](C)NC1=O
On to B1, for which the IC50 in test [3] came out at 0.12 nM; in test [4], 204 nM.

B2: Compound 4, cyclic peptide A R G D L A L p P (peptide)
peptide: cyclo(ARGDLAL[dP]P)
SMILES: CC(C)C[C@@H]1NC(=O)[C@H](CC(=O)O)NC(=O)CNC(=O)[C@H](CCCNC(=N)N)NC(=O)[C@H](C)NC(=O)[C@@H]2CCCN2C(=O)[C@H]2CCCN2C(=O)[C@H](CC(C)C)NC(=O)[C@H](C)NC1=O
notes: also called Cpd
For the molecule B2, the IC50 in test [5] came out at 42.9 nM; in [4], 106 nM; in [6], 266 nM; in test [7], 106 nM.

B3: Compound 10, cyclic peptide A R G D L A F p P (peptide)
peptide: cyclo(ARGDLAF[dP]P)
SMILES: CC(C)C[C@@H]1NC(=O)[C@H](CC(=O)O)NC(=O)CNC(=O)[C@H](CCCNC(=N)N)NC(=O)[C@H](C)NC(=O)[C@@H]2CCCN2C(=O)[C@H]2CCCN2C(=O)[C@H](Cc2ccccc2)NC(=O)[C@H](C)NC1=O
notes: also called Cpd; 10
In the case of B3, the IC50 in [5] was 10.4 nM; in [4], 104 nM; in test [6], 38.4 nM; in test [7], 104 nM.

B4: Compound 12, cyclic peptide F R G D L A L p P (peptide)
peptide: cyclo(FRGDLAL[dP]P)
SMILES: CC(C)C[C@@H]1NC(=O)[C@H](CC(=O)O)NC(=O)CNC(=O)[C@H](CCCNC(=N)N)NC(=O)[C@H](Cc2ccccc2)NC(=O)[C@@H]2CCCN2C(=O)[C@H]2CCCN2C(=O)[C@H](CC(C)C)NC(=O)[C@H](C)NC1=O
notes: also called Cpd; 12
As for B4, the 50% inhibitory concentration (IC50) was 127 nM in test [5] and 254 nM in test [6].

B5: Compound 11, cyclic peptide A R G D L A K p P (peptide)
peptide: cyclo(ARGDLAK[dP]P)
SMILES: CC(C)C[C@@H]1NC(=O)[C@H](CC(=O)O)NC(=O)CNC(=O)[C@H](CCCNC(=N)N)NC(=O)[C@H](C)NC(=O)[C@@H]2CCCN2C(=O)[C@H]2CCCN2C(=O)[C@H](CCCCN)NC(=O)[C@H](C)NC1=O
notes: also called Cpd; 11
In the case of B5, the IC50 was 49.3 nM in test [5], 302 nM in test [4], 831 nM in test [6] and 302 nM in test [7].

B6: Compound 14, cyclic peptide A R G D L A L Sar P (peptide)
peptide: cyclo(ARGDLAL[Sar]P)
SMILES: CC(C)C[C@@H]1NC(=O)[C@H](CC(=O)O)NC(=O)CNC(=O)[C@H](CCCNC(=N)N)NC(=O)[C@H](C)NC(=O)[C@@H]2CCCN2C(=O)CN(C)C(=O)[C@H](CC(C)C)NC(=O)[C@H](C)NC1=O
notes: Comparative compound (*)
With B6, the half-inhibitory concentration (IC50) in test [3] amounted to 24.2 nM; in test [4], 85.1 nM.

B7: Compound 1, cyclic peptide A R G D L A A L p P (peptide)
peptide: cyclo(ARGDLAAL[dP]P)
notes: Comparative compound (*); also called Cpd
As to B7, the half-inhibitory concentration (IC50) in [5] is 115 nM; in test [4], 76.7 nM; in test [6] it was 454 nM; in test [7], 76.7 nM.
